Source: paper PMC11271494, “Multi-domain interaction mediated strength-building in human α-actinin dimers unveiled by direct single-molecule quantification” (Nature Communications, 2024)

B1: human α-actinin 4 rod domain SR1–SR2–SR3–SR4 (domain or fragment, UniProt O43707 286-764, looked up)
chain: AVNQENEHLMEDYEKLASDLLEWIRRTIPWLEDRVPQKTIQEMQQKLEDFRDYRRVHKPPKVQEKCQLEINFNTLQTKLRLSNRPAFMPSEGKMVSDINNGWQHLEQAEKGYEEWLLNEIRRLERLDHLAEKFRQKASIHEAWTDGKEAMLKHRDYETATLSDIKALIRKHEAFESDLAAHQDRVEQIAAIAQELNELDYYDSHNVNTRCQKICDQWDALGSLTHSRREALEKTEKQLEAIDQLHLEYAKRAAPFNNWMESAMEDLQDMFIVHTIEEIEGLISAHDQFKSTLPDADREREAILAIHKEAQRIAESNHIKLSGSNPYTTVTPQIINSKWEKVQQLVPKRDHALLEEQSKQQSNEHLRRQFASQANVVGPWIQTKMEEIGRISIEMNGTLEDQLSHLKQYERSIVDYKPNLDLLEQQHQLIQEALIFDNKHTNYTMEHIRVGWEQLLTTIARTINEVENQILTRDAKGISQ
modifications: biotin on the AviTag (second rod of the construct)
notes: human α-actinin 4 (ACTN4), central rod domain of four spectrin-like repeats SR1–SR2–SR3–SR4; here the ACTN4 rod bears the biotinylated AviTag; also called (SR1–SR2–SR3–SR4)_(ACTN4); not shown: SpyTag003, N-terminal, kept; AviTag, N-terminal, kept
B2: human α-actinin 1 SR1–SR2–SR3 (domain or fragment, UniProt P12814 267-625, looked up)
chain: AVNQENEQLMEDYEKLASDLLEWIRRTIPWLENRVPENTMHAMQQKLEDFRDYRRLHKPPKVQEKCQLEINFNTLQTKLRLSNRPAFMPSEGRMVSDINNAWGCLEQVEKGYEEWLLNEIRRLERLDHLAEKFRQKASIHEAWTDGKEAMLRQKDYETATLSEIKALLKKHEAFESDLAAHQDRVEQIAAIAQELNELDYYDSPSVNARCQKICDQWDNLGALTQKRREALERTEKLLETIDQLYLEYAKRAAPFNNWMEGAMEDLQDTFIVHTIEEIQGLTTAHEQFKATLPDADKERLAILGIHNEVSKIVQTYHVNMAGTNPYTTITPQEINGKWDHVRQLVPRRDQALTEEHARQ
modifications: biotin on the AviTag
notes: human α-actinin 1 (ACTN1), spectrin-like repeats SR1–SR2–SR3 of the rod; Second half of the single-chain chimera Spy003–(SR2–SR3–SR4)ACTN1–(GS linker)–AviTag–(SR1–SR2–SR3)ACTN1; joined to m4 by the linker; also called (SR1–SR2–SR3)_(ACTN1); not shown: AviTag, N-terminal, kept
B3: human α-actinin 1 rod domain SR1–SR2–SR3–SR4 (shear–force constructs) (domain or fragment, UniProt P12814 267-745, looked up)
chain: AVNQENEQLMEDYEKLASDLLEWIRRTIPWLENRVPENTMHAMQQKLEDFRDYRRLHKPPKVQEKCQLEINFNTLQTKLRLSNRPAFMPSEGRMVSDINNAWGCLEQVEKGYEEWLLNEIRRLERLDHLAEKFRQKASIHEAWTDGKEAMLRQKDYETATLSEIKALLKKHEAFESDLAAHQDRVEQIAAIAQELNELDYYDSPSVNARCQKICDQWDNLGALTQKRREALERTEKLLETIDQLYLEYAKRAAPFNNWMEGAMEDLQDTFIVHTIEEIQGLTTAHEQFKATLPDADKERLAILGIHNEVSKIVQTYHVNMAGTNPYTTITPQEINGKWDHVRQLVPRRDQALTEEHARQQHNERLRKQFGAQANVIGPWIQTKMEEIGRISIEMHGTLEDQLSHLRQYEKSIVNYKPKIDQLEGDHQLIQEALIFDNKHTNYTMEHIRVGWEQLLTTIARTINEVENQILTRDAKGISQ
modifications: biotin on the AviTag (second rod of the homo-dimer construct)
notes: human α-actinin 1 (ACTN1), central rod domain of four spectrin-like repeats SR1–SR2–SR3–SR4; a full SR rod with the helical linker region has about 480 amino acids; Stood in single-chain chimeras: Spy003–(SR1–SR4)ACTN1–(GS linker, about 170 aa)–AviTag–(SR1–SR4)ACTN1 (homo-dimer; first rod bears SpyTag003, second rod the biotinylated AviTag) and Spy003–(SR1–SR4)ACTN1–(GS …)

Columns and labels:
[1] = target: Entamoeba histolytica α-actinin 2 rod SR1–SR2 (Entamoeba histolytica); assay: single-molecule magnetic tweezers; shear–force geometry; same tethered single-chain constructs; force–jump cycles, dwell time until rupture at a target force, lifetime by exponential fit with bootstrap analysis; 1× PBS, 1% BSA, 1 mM DTT, 10 mM sodium L-ascorbate, 22 ± 1 °C
[2] = target: Entamoeba histolytica α-actinin 2 rod SR1–SR2 (Entamoeba histolytica); assay: single-molecule magnetic tweezers; shear–force geometry; the two partners on one chain joined by a long flexible GS linker, tethered via SpyTag003 to a SpyCatcher-coated coverslip and via the biotinylated AviTag to a streptavidin/neutravidin bead; linear force-increase scans (5 pN/s; 1 pN/s for SR2–SR3:SR2–SR3; 1 and 5 pN/s for E. histolytica) and force-decrease scans (−0.1 pN/s); 1× PBS, 1% BSA, 1 mM DTT, 10 mM sodium L-ascorbate, 22 ± 1 °C
[3] = target: the molecule itself; assay: single-molecule magnetic tweezers; shear–force geometry; same tethered single-chain constructs; force–jump cycles, dwell time until rupture at a target force, lifetime by exponential fit with bootstrap analysis; 1× PBS, 1% BSA, 1 mM DTT, 10 mM sodium L-ascorbate, 22 ± 1 °C
[4] = target: B3; assay: as above; conditions: both partners purified
[5] = target: T1, human α-actinin 1 SR2–SR3–SR4 (human, UniProt P12814 385-745); assay: as above; conditions: both partners purified
T1 construct: human α-actinin 1 (ACTN1), spectrin-like repeats SR2–SR3–SR4 of the rod; First half of the single-chain chimera Spy003–(SR2–SR3–SR4)ACTN1–(GS linker)–AviTag–(SR1–SR2–SR3)ACTN1; joined to m5 by the linker; also called (SR2–SR3–SR4)_(ACTN1); not shown: SpyTag003, N-terminal, kept

## Entamoeba histolytica α-actinin 2 rod SR1–SR2 (domain or fragment)
[1]
  lifetime at forces <10 pN (second state): > 10 s
  lifetime at forces <10 pN (third state): > 1 s
  lifetime at forces <15 pN (strongest state): > 100 s
[2]
  peak rupture force (second state, 5 pN/s): 20 pN
  peak rupture force (strongest state, 5 pN/s): 33 pN
  rupture force (third state): 5 pN

## B1
[3]
  lifetime within 40 pN (shear geometry): > 100 s
[4]
  lifetime within 40 pN (shear geometry): > 100 s

## B2
[5]
  fold decrease of the force-dependent lifetime against the full rod dimer (m1 with m1): ~1000 fold

## B3
[3]
  lifetime within 40 pN (shear geometry): > 100 s
